The source of these data is patent US20220064329A1 (Novo Nordisk, published 2022).

The labels stand for the following.
T1: recombinant human activated Factor VII (FVIIa) (human, UniProt P08709 61-212; P08709 213-466, ten glutamate residues of the Gla domain may be gamma-carboxylated)
T1 construct: chains tethered by a disulfide bond; also called Factor VIIa; rFVIIa
T1 sequence 1: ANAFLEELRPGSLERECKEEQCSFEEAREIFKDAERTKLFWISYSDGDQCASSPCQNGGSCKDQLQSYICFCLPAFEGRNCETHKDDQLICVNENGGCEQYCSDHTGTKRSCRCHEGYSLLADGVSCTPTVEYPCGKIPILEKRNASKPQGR
T1 sequence 2: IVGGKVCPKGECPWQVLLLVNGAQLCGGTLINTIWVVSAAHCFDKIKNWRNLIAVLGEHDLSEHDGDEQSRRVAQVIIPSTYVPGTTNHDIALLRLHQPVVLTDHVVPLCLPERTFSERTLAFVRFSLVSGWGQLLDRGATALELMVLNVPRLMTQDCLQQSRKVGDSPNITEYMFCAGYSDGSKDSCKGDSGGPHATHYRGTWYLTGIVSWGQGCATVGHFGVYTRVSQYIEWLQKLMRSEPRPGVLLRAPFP

T2: recombinant human activated FVII (FVIIa) (human, UniProt P08709 61-212; P08709 213-466, ten glutamate residues of the Gla domain may be gamma-carboxylated)
T2 sequence 1: T1 sequence 1
T2 sequence 2: T1 sequence 2

T3: sTLT1 (SEQ ID No: 3 with six histidine residues added at the C-terminus) (human, UniProt Q86YW5 16-162)
T3 construct: Soluble TLT-1 used in SPR
T3 sequence: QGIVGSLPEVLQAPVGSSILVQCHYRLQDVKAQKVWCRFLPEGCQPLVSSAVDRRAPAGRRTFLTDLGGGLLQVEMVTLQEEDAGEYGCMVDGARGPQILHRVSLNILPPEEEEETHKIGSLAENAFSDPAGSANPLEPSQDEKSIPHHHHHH

B1: mAb0709(OA) (antibody, human IgG4 S228P, kappa)
heavy: QVQLQESGPGLVKPSQTLSLTCTVSGYSISSDSAWSWIRQPPGKGLEWIGYIQYSGSTNYNPSLKSRVTISRDTSKNQFSLKLSSVTAADTAVYYCARSVNYYGNSFAVGPWGQGTLVTVSSASTKGPSVFPLAPCSRSTSESTAALGCLVKDYFPEPVTVSWNSGALTSGVHTFPAVLQSSGLYSLSSVVTVPSSSLGTKTYTCNVDHKPSNTKVDKRVESKYGPPCPPCPAPEFLGGPSVFLFPPKPKDTLMISRTPEVTCVVVDVSQEDPEVQFNWYVDGVEVHNAKTKPREEQFNSTYRVVSVLTVLHQDWLNGKEYKCKVSNKGLPSSIEKTISKAKGQPREPQVYTLPPSQEEMTKNQVSLSCAVKGFYPSDIAVEWESNGQPENNYKTTPPVLDSDGSFFLVSRLTVDKSRWQEGNVFSCSVMHEALHNHYTQKSLSLSLGK
light: EIVLTQSPATLSLSPGERATLSCRASQGISDYLHWYQQKPGEAPRLLIKYTSQPATGIPARFSGSGSGTDFTLTISSLEPEDFAVYYCQNGHSFPLTFGQGTKLEIKRTVAAPSVFIFPPSDEQLKSGTASVVCLLNNFYPREAKVQWKVDNALQSGNSQESVTEQDSKDSTYSLSSTLTLSKADYEKHKVYACEVTHQGLSSPVTKSFNRGEC
chain: not shown
notes: one-armed (OA) antibody, constant domain type F (knob-in-hole)
B2: mAb0710(OA) (antibody, human IgG4 S228P, kappa)
heavy: B1 heavy with P41F
light: B1 light with E42Q
chain: not shown
notes: as for B1
B3: mAb0705(OA) (antibody, human IgG4 S228P, kappa)
heavy: B1 heavy with P111Y
light: B1 light
chain: not shown
notes: one-armed (OA) antibody, constant domain type F (knob-in-hole); also called monovalent humanized 11F2
B4: mAb0707(OA) (antibody, human IgG4 S228P, kappa)
heavy: B1 heavy with K13E
light: B1 light
chain: not shown
notes: as for B1
B5: mAb0706(OA) (antibody, human IgG4 S228P, kappa)
heavy: B1 heavy with K13E, P111Y
light: B1 light with E42Q
chain: not shown
notes: as for B1
B6: biAb0011 (bispecific antibody, human IgG4 S228P, kappa)
heavy 1: B1 heavy with K13E, S30T, G45K, P111Y, S368T, A370L, F407L, V409Y, R411K
light 1: B1 light with I29V, E42Q, T51A
heavy 2: not shown
light 2: DIVMTQTPLSSPVTLGQPASISCRSSQSLVHRQGNTYFHWLQQRPGQPPRLLIYKVSNRFSGVPDRFSGSGAGTDFTLKISRVEAEDVGVYYCSQSTHVPYTFGQGTKLEIKRTVAAPSVFIFPPSDEQLKSGTASVVCLLNNFYPREAKVQWKVDNALQSGNSQESVTEQDSKDSTYSLSSTLTLSKADYEKHKVYACEVTHQGLSSPVTKSFNRGEC
notes: Duobody, constant domain type H (IgG4): anti-FVII(a) arm mAb0875, anti-TLT-1 arm mAb1076; also called mAb0875 x mAb1076
B7: biAb0098 (bispecific antibody, human IgG4 S228P, kappa)
heavy 1: DVQLQESGPGLVEPSQTLSLTCTVSGYSITSDSAWSWIRQFPGKKLEWMGYIQYSGSTNYNPSLKSRVTISRDTSKNQFSLKLSSVTAEDTAVYYCARSVNYYGNSFAVDYWGQGTSVTVSSASTKGPSVFPLAPCSRSTSESTAALGCLVKDYFPEPVTVSWNSGALTSGVHTFPAVLQSSGLYSLSSVVTVPSSSLGTKTYTCNVDHKPSNTKVDKRVESKYGPPCPPCPAPEFLGGPSVFLFPPKPKDTLMISRTPEVTCVVVDVSQEDPEVQFNWYVDGVEVHNAKTKPREEQFNSTYRVVSVLTVLHQDWLNGKEYKCKVSNKGLPSSIEKTISKAKGQPREPQVYTLPPSQEEMTKNQVSLTCLVKGFYPSDIAVEWESNGQPENNYKTTPPVLDSDGSFLLYSKLTVDKSRWQEGNVFSCSVMHEALHNHYTQKSLSLSLGK
light 1: B1 light with F83V, A84G, Q100A, I106L
heavy 2: not shown
light 2: B6 light 2 with Q33N
notes: Duobody, constant domain type H (IgG4): anti-FVII(a) arm mAb0874, anti-TLT-1 arm mAb1047; also called mAb0874 x mAb1047
B8: biAb0097 (bispecific antibody, human IgG4 S228P, kappa)
heavy 1: DVQLQESGPGLVEPSQSLSLTCTVTGYSITSDSAWSWIRQFPGNKLEWMGYIQYSGSTNYNPSLKSRISVTRDTSKNQFFLRLSSVTAEDTATYYCTRSVNYYGNSFAVGYWGQGTSVTVSSASTKGPSVFPLAPCSRSTSESTAALGCLVKDYFPEPVTVSWNSGALTSGVHTFPAVLQSSGLYSLSSVVTVPSSSLGTKTYTCNVDHKPSNTKVDKRVESKYGPPCPPCPAPEFLGGPSVFLFPPKPKDTLMISRTPEVTCVVVDVSQEDPEVQFNWYVDGVEVHNAKTKPREEQFNSTYRVVSVLTVLHQDWLNGKEYKCKVSNKGLPSSIEKTISKAKGQPREPQVYTLPPSQEEMTKNQVSLTCLVKGFYPSDIAVEWESNGQPENNYKTTPPVLDSDGSFLLYSKLTVDKSRWQEGNVFSCSVMHEALHNHYTQKSLSLSLGK
light 1: B1 light with F83V, A84G, N90S, Q100A, I106L
heavy 2: not shown
light 2: B6 light 2 with Q33N
notes: Duobody, constant domain type H (IgG4): anti-FVII(a) arm mAb0872, anti-TLT-1 arm mAb1047; also called mAb0872 x mAb1047
B9: biAb0017 (bispecific antibody, human IgG4 S228P, kappa)
heavy 1: B8 heavy 1
light 1: B1 light with F83V, A84G, N90S, Q100A, I106L
heavy 2: not shown
light 2: B6 light 2 with Q33P
notes: Duobody, constant domain type H (IgG4): anti-FVII(a) arm mAb0872, anti-TLT-1 arm mAb1038; also called mAb0872 x mAb1038
B10: biAb0096 (bispecific antibody, human IgG4 S228P, kappa)
heavy 1: B7 heavy 1 with D1Q, F41P, M49I, E89A, D110G, S117L
light 1: B1 light with I29V, E42Q, T51A
heavy 2: not shown
light 2: B6 light 2 with Q33N
notes: Duobody, constant domain type H (IgG4): anti-FVII(a) arm mAb0875, anti-TLT-1 arm mAb1047; also called mAb0875 x mAb1047
B11: biAb0013 (bispecific antibody, human IgG4 S228P, kappa)
heavy 1: B7 heavy 1
light 1: B1 light with F83V, A84G, Q100A, I106L
heavy 2: not shown
light 2: B6 light 2
notes: Duobody, constant domain type H (IgG4): anti-FVII(a) arm mAb0874, anti-TLT-1 arm mAb1076; also called mAb0874 x mAb1076
B12: biAb0016 (bispecific antibody, human IgG4 S228P, kappa)
heavy 1: B7 heavy 1 with D1Q, F41P, M49I, E89A, D110G, S117L
light 1: B1 light with I29V, E42Q, T51A
heavy 2: not shown
light 2: B6 light 2 with Q33P
notes: Duobody, constant domain type H (IgG4): anti-FVII(a) arm mAb0875, anti-TLT-1 arm mAb1038; also called mAb0875 x mAb1038
B13: biAb0012 (bispecific antibody, human IgG4 S228P, kappa)
heavy 1: B8 heavy 1
light 1: B1 light with F83V, A84G, N90S, Q100A, I106L
heavy 2: not shown
light 2: B6 light 2
notes: Duobody, constant domain type H (IgG4): anti-FVII(a) arm mAb0872, anti-TLT-1 arm mAb1076; also called mAb0872 x mAb1076
B14: biAb0091 (bispecific antibody, human IgG4 S228P, kappa)
heavy 1: B7 heavy 1 with D1Q, F41P, M49I, E89A, D110G, S117L
light 1: B1 light with I29V, E42Q, T51A
heavy 2: not shown
light 2: B6 light 2 with Q33N
notes: Duobody, constant domain type H (IgG4): anti-FVII(a) arm mAb0875, anti-TLT-1 arm mAb1049; also called mAb0875 x mAb1049
B15: biAb0092 (bispecific antibody, human IgG4 S228P, kappa)
heavy 1: B8 heavy 1
light 1: B1 light with F83V, A84G, N90S, Q100A, I106L
heavy 2: not shown
light 2: B6 light 2 with Q33N
notes: Duobody, constant domain type H (IgG4): anti-FVII(a) arm mAb0872, anti-TLT-1 arm mAb1049; also called mAb0872 x mAb1049
B16: biAb0018 (bispecific antibody, human IgG4 S228P, kappa)
heavy 1: B7 heavy 1
light 1: B1 light with F83V, A84G, Q100A, I106L
heavy 2: not shown
light 2: B6 light 2 with Q33P
notes: Duobody, constant domain type H (IgG4): anti-FVII(a) arm mAb0874, anti-TLT-1 arm mAb1038; also called mAb0874 x mAb1038

Where a chain is given by its changes, count along the chain named.

One test concerns the target T1, recombinant human activated Factor VII …. The test can be described thus: SPR (Biacore). A general note: SPR reads the build-up and loss of mass on a sensor chip optically.
Turning to B1, the Kd was found to be 0.104 nM.

Turning to B2, the Kd worked out at 0.128 nM.

Regarding B3, the Kd is 0.0505 nM.

Take B4: the Kd came out at 0.106 nM.

Take B5: the Kd was found to be 0.0542 nM.

The target is the same in another test. The test can be described thus: cell-based or functional assay.
Take B1: the “AT inhibition (kinh %)” value was determined as 137% and the “TGT activity (%% FVIIa)” value is 103%.

B2: the “AT inhibition (kinh %)” value amounted to 136% and the “TGT activity (%% FVIIa)” value is 102%.

For the molecule B3, the “AT inhibition (kinh %)” value stood at 129% and the “TGT activity (%% FVIIa)” value came out at 100%.

In the case of B4, the “AT inhibition (kinh %)” value was found to be 129% and the “TGT activity (%% FVIIa)” value turned out to be 102%.

Regarding B5, the “AT inhibition (kinh %)” value was 132% and the “TGT activity (%% FVIIa)” value was determined as 101%.

Another test addresses T2, recombinant human activated FVII (FVIIa). Nature of the test: cell-based or functional assay.
Turning to B6, the “Stimulation (fold): FXa generated by FVIIa with lipidated TLT-1 and 100 nM biAb, relative to free FVIIa” value (“Stimulation (fold) … relative to free FVIIa” below) is 20.3 fold.

For B7, the “Stimulation (fold) … relative to free FVIIa” value came to 15.3 fold.

As to B8, the “Stimulation (fold) … relative to free FVIIa” value stood at 17.4 fold.

B9: the “Stimulation (fold) … relative to free FVIIa” value turned out to be 13.6 fold.

Take B10: the “Stimulation (fold) … relative to free FVIIa” value worked out at 12.4 fold.

Turning to B11, the “Stimulation (fold) … relative to free FVIIa” value was found to be 16 fold.

In the case of B12, the “Stimulation (fold) … relative to free FVIIa” value came to 17.3 fold.

As for B13, the “Stimulation (fold) … relative to free FVIIa” value is 22.1 fold.

With B14, the “Stimulation (fold) … relative to free FVIIa” value turned out to be 11.3 fold.

For B15, the “Stimulation (fold) … relative to free FVIIa” value was determined as 11.2 fold.

With B16, the “Stimulation (fold) … relative to free FVIIa” value is 12.8 fold.

Another test addresses T3, sTLT1 (SEQ ID No: 3 with six histidine …). Nature of the test: dissociation constant listed with the stimulatory activities; value of the anti-TLT-1 arm.
Consider B6, for which the Kd turned out to be 2.9 nM.

With B7, the Kd is 75 nM.

With B8, binding was put at a Kd of 75 nM.

B9 gave a Kd of 19 nM.

For the molecule B10, binding was characterised by a dissociation constant (Kd) of 75 nM.

Consider B11, for which the affinity, expressed as Kd, was 2.9 nM.

Turning to B12, the Kd was 19 nM.

B13: binding was put at a Kd of 2.9 nM.

B14: binding was characterised by a dissociation constant (Kd) of 320 nM.

The molecule B15 registered a Kd of 320 nM.

With B16, the Kd worked out at 19 nM.

The next test addresses T2, recombinant human activated FVII (FVIIa). The test can be described thus: dissociation constant listed with the stimulatory activities; method not given.
In the case of B6, the Kd was 0.28 nM.

In the case of B7, the Kd worked out at 16.2 nM.

On to B8, for which the Kd turned out to be 2.2 nM.

For the molecule B9, the Kd is 2.2 nM.

Turning to B10, the Kd came to 0.28 nM.

Take B11: the Kd turned out to be 16.2 nM.

Consider B12, for which the Kd is 0.28 nM.

Take B13: the Kd is 2.2 nM.

B14: the Kd came out at 0.28 nM.

For B15, the Kd was determined as 2.2 nM.

As to B16, the Kd is 16.2 nM.

As a reminder, the Kd is the equilibrium constant for the complex coming apart.
